Measured values taken from US7176008B2, “Process for producing activated thrombin-activatable fibrinolysis inhibitor” (Merck & Co., Inc., priority 2002, dated 2007).

Test: Stability of TAFIa activity
Parameters: species or system human
Protocol: Pooled human plasma (30–40 mL) was diluted 10-fold with HBE buffer (10 mM HEPES, pH 7.4, 5 mM ε-aminocaproic acid). 5 mM of the reversible inhibitor ε-aminocaproic acid was added to maintain TAFIa stability during the isolation.
Thrombin, thrombomodulin and calcium chloride (final concentrations 5 nM, 2 nM and 5 mM, respectively) were added and the solution was shaken at room temperature for 30 min. The formation of serum was quenched with 10 μM FPRCK and centrifuged at 20,000×g for 30 min at 4° C. Unless otherwise mentioned, all isolation steps were performed at 4° C. The fibrin-free solution was loaded onto a heparin-sepharose column (2.5×3 cm) pre-equilibrated with HBE buffer.
In the presence of 5 mM ε-aminocaproic acid, TAFIa activity in serum reached a maximum at ˜5 min and was preserved >30 min at 37° C. Initial studies for formation of serum by simply adding thrombin and calcium only activated a limited amount of TAFI zymogen (<<0.5%) as determined with western blotting. Dilution of the plasma for serum preparation increased TAFI activation. A 4–5-fold increase in TAFI activation was observed if the plasma were diluted 10–20-fold. […] A maximal increase (30–35-fold) was obtained with 2 nM thrombomodulin, consistent with the fact that thrombomodulin is the cofactor for thrombin-mediated TAFI activation. […]

B1: TAFIa: activated thrombin-activatable fibrinolysis inhibitor, a basic carboxypeptidase purified from serum (protein)
chain: ASASYYEQYHSLNEIYSWIEFITERHPDMLTKIHIGSSFEKYPLYVLKVSGKEQAAKNAIWIDCGIHAREWISPAFCLWFIGHITQFYGIIGQYTNLLRLVDFYVMPVVNVDGYDYSWKKNRMWRKNRSFYANNHCIGTDLNRNFASKHWCEEGASSSSCSETYCGLYPESEPEVKAVASFLRRNINQIKAYISMHSYSQHIVFPYSYTRSKSKDHEELSLVASEAVRAIEKISKNTRYTHGHGSETLYLAPGGGDDWIYDLGIKYSFTIELRDTGTYGFLLPERYIKPTCREAFAAVSKIAWHVIRNV
- time TAFIa activity was maintained (4° C., ε-aminocaproic acid present during isolation): more than 3 days
- time TAFIa activity in serum was preserved (37° C., in the presence of 5 mM ε-aminocaproic acid): > 30 min
